Reference: article PMC7440162 (Cell, 2020)

What was measured:
Experiment in all cases: SPR
human ISLR2 ECD-Fc = biological target: T1, human ISLR2 ECD-Fc (human, UniProt Q6UXK2 19-589, biotin on the AviTag (as SPR ligand))
T1 sequence: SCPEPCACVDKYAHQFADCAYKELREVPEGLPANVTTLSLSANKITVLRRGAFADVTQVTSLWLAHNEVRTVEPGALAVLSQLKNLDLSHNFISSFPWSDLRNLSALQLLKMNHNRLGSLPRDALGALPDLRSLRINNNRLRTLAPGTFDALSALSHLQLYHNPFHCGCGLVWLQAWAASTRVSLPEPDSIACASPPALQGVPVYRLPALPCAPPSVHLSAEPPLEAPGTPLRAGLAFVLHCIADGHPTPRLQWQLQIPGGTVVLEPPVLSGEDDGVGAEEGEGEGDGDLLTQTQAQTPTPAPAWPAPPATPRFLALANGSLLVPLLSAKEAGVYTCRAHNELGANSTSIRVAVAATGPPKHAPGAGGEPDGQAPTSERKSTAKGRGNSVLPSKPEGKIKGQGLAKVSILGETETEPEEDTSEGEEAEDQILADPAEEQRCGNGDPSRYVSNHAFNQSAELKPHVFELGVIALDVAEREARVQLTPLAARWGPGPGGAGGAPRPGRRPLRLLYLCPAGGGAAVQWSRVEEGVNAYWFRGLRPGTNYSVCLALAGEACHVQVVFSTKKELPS

ICAM5 ECD-Fc = biological target: T2, ICAM5 ECD-Fc (human, UniProt Q9UMF0 32-835, biotin on the AviTag (as SPR ligand))
T2 sequence: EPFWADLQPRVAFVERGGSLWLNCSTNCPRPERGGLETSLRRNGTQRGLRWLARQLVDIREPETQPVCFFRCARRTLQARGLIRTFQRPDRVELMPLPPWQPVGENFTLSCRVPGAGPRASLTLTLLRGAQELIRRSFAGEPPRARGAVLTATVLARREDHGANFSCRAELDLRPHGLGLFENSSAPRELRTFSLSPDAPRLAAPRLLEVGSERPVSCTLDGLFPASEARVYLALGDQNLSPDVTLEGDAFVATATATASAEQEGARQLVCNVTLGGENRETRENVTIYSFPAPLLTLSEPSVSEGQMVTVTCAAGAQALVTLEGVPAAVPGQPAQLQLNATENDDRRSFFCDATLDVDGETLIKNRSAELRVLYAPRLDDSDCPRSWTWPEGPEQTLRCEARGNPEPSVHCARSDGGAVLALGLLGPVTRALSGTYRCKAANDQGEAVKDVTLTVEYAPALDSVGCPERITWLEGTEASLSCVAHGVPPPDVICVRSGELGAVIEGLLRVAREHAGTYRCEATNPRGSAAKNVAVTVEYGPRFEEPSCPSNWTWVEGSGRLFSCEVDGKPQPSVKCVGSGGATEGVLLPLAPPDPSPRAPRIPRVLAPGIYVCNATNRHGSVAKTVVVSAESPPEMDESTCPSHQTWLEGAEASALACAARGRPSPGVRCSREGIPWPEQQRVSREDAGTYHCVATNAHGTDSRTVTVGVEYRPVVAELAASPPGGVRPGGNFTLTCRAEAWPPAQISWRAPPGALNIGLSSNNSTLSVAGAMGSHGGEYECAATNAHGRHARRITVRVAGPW

WFIKKN2-Fc = biological target: T3, WFIKKN2-Fc (human, UniProt Q8TEU8 35-576, biotin on the AviTag (as SPR ligand))
T3 sequence: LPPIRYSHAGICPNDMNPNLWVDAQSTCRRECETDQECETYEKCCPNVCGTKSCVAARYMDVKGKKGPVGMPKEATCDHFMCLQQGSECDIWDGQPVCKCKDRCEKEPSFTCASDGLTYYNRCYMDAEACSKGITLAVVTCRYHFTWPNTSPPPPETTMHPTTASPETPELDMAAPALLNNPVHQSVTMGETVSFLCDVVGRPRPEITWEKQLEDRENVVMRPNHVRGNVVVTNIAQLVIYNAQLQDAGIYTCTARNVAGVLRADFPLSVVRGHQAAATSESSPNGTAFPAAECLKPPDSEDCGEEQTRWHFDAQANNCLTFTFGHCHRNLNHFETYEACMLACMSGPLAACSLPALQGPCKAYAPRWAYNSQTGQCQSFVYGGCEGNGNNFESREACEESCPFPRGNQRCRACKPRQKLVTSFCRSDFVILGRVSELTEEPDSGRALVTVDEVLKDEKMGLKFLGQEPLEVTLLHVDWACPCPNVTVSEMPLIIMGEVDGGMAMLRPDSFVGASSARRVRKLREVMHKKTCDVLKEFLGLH

LTF-Fc = LTF-Fc (human, UniProt P02788, biotin on the AviTag (as SPR ligand))
Chain of LTF-Fc (P02788 20-710): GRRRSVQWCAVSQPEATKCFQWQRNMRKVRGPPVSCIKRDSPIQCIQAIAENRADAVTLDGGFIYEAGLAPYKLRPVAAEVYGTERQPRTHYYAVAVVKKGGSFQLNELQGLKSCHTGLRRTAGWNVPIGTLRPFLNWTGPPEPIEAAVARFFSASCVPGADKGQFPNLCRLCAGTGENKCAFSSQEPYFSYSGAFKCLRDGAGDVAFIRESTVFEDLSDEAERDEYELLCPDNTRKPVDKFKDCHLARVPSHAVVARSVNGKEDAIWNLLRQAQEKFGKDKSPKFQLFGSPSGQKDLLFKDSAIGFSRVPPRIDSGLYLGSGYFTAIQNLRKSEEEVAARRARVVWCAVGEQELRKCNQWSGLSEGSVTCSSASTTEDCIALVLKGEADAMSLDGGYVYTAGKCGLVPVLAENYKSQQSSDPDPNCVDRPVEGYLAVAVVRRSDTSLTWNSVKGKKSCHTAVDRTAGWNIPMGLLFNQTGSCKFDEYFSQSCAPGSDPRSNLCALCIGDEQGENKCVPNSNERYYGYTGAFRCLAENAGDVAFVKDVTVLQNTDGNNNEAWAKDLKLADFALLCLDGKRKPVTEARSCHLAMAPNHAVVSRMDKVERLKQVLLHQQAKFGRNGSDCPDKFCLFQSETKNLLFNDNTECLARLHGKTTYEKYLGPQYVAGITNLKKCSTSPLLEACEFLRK

mouse Lepr ECD-Fc = biological target: T4, mouse Lepr ECD-Fc (mouse, UniProt P48356 22-839, biotin on the AviTag (as SPR ligand))
T4 sequence: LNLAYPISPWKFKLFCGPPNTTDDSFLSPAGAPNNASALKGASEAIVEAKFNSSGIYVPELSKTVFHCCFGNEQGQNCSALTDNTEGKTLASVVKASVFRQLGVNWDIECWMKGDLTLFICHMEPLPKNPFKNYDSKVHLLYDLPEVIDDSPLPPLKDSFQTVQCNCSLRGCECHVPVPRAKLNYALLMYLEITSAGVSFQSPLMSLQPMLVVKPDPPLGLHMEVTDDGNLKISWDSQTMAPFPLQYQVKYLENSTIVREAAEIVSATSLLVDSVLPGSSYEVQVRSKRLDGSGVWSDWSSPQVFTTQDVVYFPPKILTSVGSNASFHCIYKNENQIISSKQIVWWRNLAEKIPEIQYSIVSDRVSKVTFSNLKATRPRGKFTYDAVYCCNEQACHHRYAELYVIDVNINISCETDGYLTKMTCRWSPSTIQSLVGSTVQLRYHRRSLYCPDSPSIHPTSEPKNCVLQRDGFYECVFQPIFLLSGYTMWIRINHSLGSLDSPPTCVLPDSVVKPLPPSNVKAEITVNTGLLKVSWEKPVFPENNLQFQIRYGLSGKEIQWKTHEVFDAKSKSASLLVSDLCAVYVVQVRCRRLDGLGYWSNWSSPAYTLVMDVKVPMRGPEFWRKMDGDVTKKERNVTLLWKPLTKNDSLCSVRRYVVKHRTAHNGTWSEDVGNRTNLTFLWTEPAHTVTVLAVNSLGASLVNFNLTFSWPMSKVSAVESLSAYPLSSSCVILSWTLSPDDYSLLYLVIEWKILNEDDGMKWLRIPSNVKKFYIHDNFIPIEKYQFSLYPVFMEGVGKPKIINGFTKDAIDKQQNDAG

mouse Islr2 ECD-Fc = biological target: T5, mouse Islr2 ECD-Fc (mouse, UniProt Q5RKR3 20-589, biotin on the AviTag (as SPR ligand))
T5 sequence: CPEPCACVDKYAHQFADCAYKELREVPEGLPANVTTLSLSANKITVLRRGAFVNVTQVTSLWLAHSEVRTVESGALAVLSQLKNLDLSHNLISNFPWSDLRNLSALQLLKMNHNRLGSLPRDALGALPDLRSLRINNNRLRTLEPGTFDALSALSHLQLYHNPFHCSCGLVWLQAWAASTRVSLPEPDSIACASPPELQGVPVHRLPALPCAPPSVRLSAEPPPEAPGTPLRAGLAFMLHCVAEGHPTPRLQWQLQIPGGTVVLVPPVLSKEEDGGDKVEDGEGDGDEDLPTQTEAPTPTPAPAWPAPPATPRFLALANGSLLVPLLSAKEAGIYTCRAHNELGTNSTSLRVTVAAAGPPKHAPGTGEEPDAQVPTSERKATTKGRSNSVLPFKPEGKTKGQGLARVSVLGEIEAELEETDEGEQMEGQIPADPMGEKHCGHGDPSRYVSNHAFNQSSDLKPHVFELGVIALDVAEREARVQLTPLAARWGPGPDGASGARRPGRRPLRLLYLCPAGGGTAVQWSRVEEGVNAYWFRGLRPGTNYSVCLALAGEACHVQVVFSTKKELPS

Measured: binding result

B1: IL-6Rα ECD-Fc (Fc fusion)
chain: LAPRRCPAQEVARGVLTSLPGDSVTLTCPGVEPEDNATVHWVLRKPAAGSHPSRWAGMGRRLLLRSVQLHDSGNYSCYRAGRPAGTVHLLVDVPPEEPQLSCFRKSPLSNVVCEWGPRSTPSLTTKAVLLVRKFQNSPAEDFQEPCQYSQESQKFSCQLAVPEGDSSFYIVSMCVASSVGSKFSKTQTFQGCGILQPDPPANITVTAVARNPRWLSVTWQDPHSWNSSFYRLRFELRYRAERSKTFTTWMVKDLQHHCVIHDAWSGLRHVVQLRAQEEFGQGEWSEWSPEAMGTPWTESRSPPAENEVSTPMQALTTNKDDDNILFRDSANATSLPVQDSSSVPLP
modifications: biotin on the AviTag (as SPR ligand)
binds: human ISLR2 ECD-Fc | ICAM5 ECD-Fc | WFIKKN2-Fc | LTF-Fc

B2: Recombinant Mouse Leptin Protein (monomer) (ligand)
chain: VPIQKVQDDTKTLIKTIVTRINDISHTQSVSAKQRVTGLDFIPGLHPILSLSKMDQTLAVYQQVLTSLPSQNVLQIANDLENLRDLLHLLAFSKSCSLPQTSGLQKPESLDGVLEASLYSTEVVALSRLQGSLQDILQQLDVSPEC
binds: mouse Lepr ECD-Fc | human ISLR2 ECD-Fc | mouse Islr2 ECD-Fc
